The target of data set [1] is T1, His6-ParB (Myxococcus xanthus DK1622, UniProt Q1CVJ4 1-296).
T1 sequence: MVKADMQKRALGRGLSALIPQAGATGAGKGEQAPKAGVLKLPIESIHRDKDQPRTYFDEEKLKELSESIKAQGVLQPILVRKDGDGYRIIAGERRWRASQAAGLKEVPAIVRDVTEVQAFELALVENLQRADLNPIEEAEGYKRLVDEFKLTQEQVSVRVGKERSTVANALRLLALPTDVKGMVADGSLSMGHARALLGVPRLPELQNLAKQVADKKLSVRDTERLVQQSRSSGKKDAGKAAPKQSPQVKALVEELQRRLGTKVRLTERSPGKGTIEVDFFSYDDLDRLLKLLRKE
Nature of the data set: EMSA; 100 nM DNA, 0.1-6 uM His6-ParB, 5 uM pBluescript II SK- competitor, 5 mM Mg2+; 38 mM Hepes/NaOH pH 7.2, 38 mM NaCl, 5 mM MgCl2, 7% glycerol, 1 mM beta-mercaptoethanol, 20 min at 30 C; 6% PAGE at 4 C in 1xTBE + 5 mM MgCl2. Particulars: protein: recombinant; tags: N-terminal His6 (pET45b+); chain copies: 2; blunt.

Data set [2] has as its target T1, His6-ParB. The data set is described as above. Particulars: protein: recombinant; tags: N-terminal His6 (pET45b+); chain copies: 2; blunt. The source holds these as a separate data set.

Here are results for two molecules from article PMC3778016, “Tracking of Chromosome and Replisome Dynamics in Myxococcus xanthus Reveals a Novel Chromosome Arrangement”.

B1: HEX-parS consensus (dsDNA)
DNA 1: GAGGCTTGTTCCACGTGGAACGTCGG
DNA 2: CCGACGTTCCACGTGGAACAAGCCTC
B1: in data set [1], the binding result was “binds”.

B2: HEX-parSmut (dsDNA)
DNA 1: GAGGCTTGCCCCACGTGGAACGTCGG
DNA 2: CCGACGTTCCACGTGGGGCAAGCCTC
Regarding B2, the binding signal in data set [2] was ~10 fold reduced affinity vs N1.
